{
  "source": "patent US20250206818A1",
  "about": "(AGENUS, published 2025)",
  "binders": {"B1": {"name": "P13B02-16 (antibody, IgG1, V domains shown)", "VH": "QVQMKQSGAEVKKPGASVKVSCTASGFNIKDTYIHWVRQAPGQGLEWMGEIDPANDNTKYDPKFQGRVTITADTSSNTVYMELSSLRSEDTAVYYCATYYYRYDVGGFDYWGQGTLVTVSS", "VL": "EIVLTQSPGTLSLSPGERATLSCSVSSSISSSNLHWYQQKPGQAPRLLIYGTSNLASGIPDRFSGSGSGTDFTLTISRLEPEDFAVYYCQQWSSYPFTFGQGTKVEIK", "notes": "Humanized; generated as full length IgG1; also called P13B02-16 (IgG1)"}, "B2": {"name": "P13B02-27 (antibody, IgG1, V domains shown)", "VH": "B1 VH with K12V, M48I, M81L, E82Q, D104E", "VL": "B1 VL with V3L, S22T, Y37F, A44S, L48W, I59V, D71S, F72Y", "notes": "Humanized; VH is H4_D100E; generated as full length IgG1; also called P13B02-27 (IgG1)"}, "B3": {"name": "P13B02-26 (antibody, IgG1, V domains shown)", "VH": "B1 VH with K12V, M48I, M81L, E82Q, R102K", "VL": "B1 VL with V3L, S22T, Y37F, A44S, L48W, I59V, D71S, F72Y", "notes": "Humanized; VH is H4_R98K; generated as full length IgG1; also called P13B02-26 (IgG1)"}, "B4": {"name": "P13B02-07 (antibody, IgG1, V domains shown)", "VH": "B1 VH with M4L, K5V, T23K, S76T, N77S", "VL": "B1 VL with D71S, F72Y", "notes": "Humanized; generated as full length IgG1; also called P13B02-07 (IgG1)"}, "B5": {"name": "P13B02-25 (antibody, IgG1, V domains shown)", "VH": "B1 VH with K12V, M48I, M81L, E82Q", "VL": "B1 VL with V3L, S22T, Y37F, A44S, L48W, I59V, D71S, F72Y", "notes": "Humanized; generated as full length IgG1; also called P13B02-25 (IgG1)"}},
  "note": "Where a chain is given by its changes, count along the chain named.",
  "data": [
    {"molecular_target": "T1, recombinant human LAG-3 (human, UniProt P18627 23-450, limits assumed)", "T1 sequence (looked up)": "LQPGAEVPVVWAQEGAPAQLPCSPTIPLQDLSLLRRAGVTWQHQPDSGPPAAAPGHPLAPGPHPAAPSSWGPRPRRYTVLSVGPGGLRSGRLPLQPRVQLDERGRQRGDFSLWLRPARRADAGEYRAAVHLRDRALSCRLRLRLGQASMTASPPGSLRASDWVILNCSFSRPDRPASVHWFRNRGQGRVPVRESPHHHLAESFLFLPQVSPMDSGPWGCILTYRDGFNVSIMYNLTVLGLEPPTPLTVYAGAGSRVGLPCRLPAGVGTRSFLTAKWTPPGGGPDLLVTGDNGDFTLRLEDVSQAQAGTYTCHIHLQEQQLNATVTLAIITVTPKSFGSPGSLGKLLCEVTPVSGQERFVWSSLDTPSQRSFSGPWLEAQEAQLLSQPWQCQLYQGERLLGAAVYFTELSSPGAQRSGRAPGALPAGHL", "test": "surface plasmon resonance (data not shown)", "values": [
      {"binder": "B1", "binding result": "binds"},
      {"binder": "B2", "binding result": "binds"},
      {"binder": "B3", "binding result": "binds"},
      {"binder": "B4", "binding result": "binds"},
      {"binder": "B5", "binding result": "binds"}
    ]},
    {"molecular_target": "T2, human LAG-3 expressed on cells (human, UniProt P18627 23-525)", "T2 construct": "whole, on cells; also called CD223", "T2 sequence (looked up)": "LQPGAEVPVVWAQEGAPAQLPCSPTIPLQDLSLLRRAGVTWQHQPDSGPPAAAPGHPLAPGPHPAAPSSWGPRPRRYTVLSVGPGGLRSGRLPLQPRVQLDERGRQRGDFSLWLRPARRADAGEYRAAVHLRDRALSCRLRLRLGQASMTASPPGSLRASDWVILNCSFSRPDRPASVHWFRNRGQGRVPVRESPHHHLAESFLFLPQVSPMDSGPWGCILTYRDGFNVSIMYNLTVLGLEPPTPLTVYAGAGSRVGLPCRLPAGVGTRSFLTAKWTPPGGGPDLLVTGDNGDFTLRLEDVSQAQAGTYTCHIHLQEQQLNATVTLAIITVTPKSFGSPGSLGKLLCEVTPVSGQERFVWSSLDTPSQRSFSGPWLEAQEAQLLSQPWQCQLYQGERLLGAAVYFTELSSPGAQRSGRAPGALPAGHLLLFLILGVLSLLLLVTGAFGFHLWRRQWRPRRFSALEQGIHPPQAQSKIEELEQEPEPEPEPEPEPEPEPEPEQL", "test": "flow cytometry, 10 ug/ml antibody on SEA-activated primary human CD4+ T cells (FIG. 6A)", "values": [
      {"binder": "B1", "binding result": "binds"},
      {"binder": "B2", "binding result": "binds"},
      {"binder": "B3", "binding result": "binds"},
      {"binder": "B4", "binding result": "binds"},
      {"binder": "B5", "binding result": "binds"}
    ]}
  ]
}
